In publication PMC4627809, “Client Proteins and Small Molecule Inhibitors Display Distinct Binding Preferences for Constitutive and Stress-Induced HSP90 Isoforms and Their Conformationally Restricted Mutants” (PLoS ONE, 2015):

Target: T1, FLAG-HSP90α wild type (human, UniProt P07900 1-732)
T1 construct: HSP90α, stress-inducible cytosolic HSP90 isoform, encoded by HSP90AA1, human; The plasmid list names only pcDNA3-FLAG-HSP90α; the LUMIER methods call the protein 3XFLAG-tagged; also called HSP90α WT; 3XFLAG-HSP90α; source: HEK293, transfected, in lysate
Assay: LUMIER; HEK293 in 96-well plates co-transfected with NanoLuc-client and 3XFLAG-HSP90α or β; TGNET lysate on anti-FLAG antibody-coated plate 2 h at 4°C; NanoLuc read-out divided by anti-FLAG-HRP read-out = relative interaction strength
Conditions: partners not purified

B1: NL-RHOBTB2/DBC2 (natural protein, UniProt Q9BYZ6 1-727, looked up)
chain: MDSDMDYERPNVETIKCVVVGDNAVGKTRLICARACNATLTQYQLLATHVPTVWAIDQYRVCQEVLERSRDVVDDVSVSLRLWDTFGDHHKDRRFAYGRSDVVVLCFSIANPNSLHHVKTMWYPEIKHFCPRAPVILVGCQLDLRYADLEAVNRARRPLARPIKPNEILPPEKGREVAKELGIPYYETSVVAQFGIKDVFDNAIRAALISRRHLQFWKSHLRNVQRPLLQAPFLPPKPPPPIIVVPDPPSSSEECPAHLLEDPLCADVILVLQERVRIFAHKIYLSTSSSKFYDLFLMDLSEGELGGPSEPGGTHPEDHQGHSDQHHHHHHHHHGRDFLLRAASFDVCESVDEAGGSGPAGLRASTSDGILRGNGTGYLPGRGRVLSSWSRAFVSIQEEMAEDPLTYKSRLMVVVKMDSSIQPGPFRAVLKYLYTGELDENERDLMHIAHIAELLEVFDLRMMVANILNNEAFMNQEITKAFHVRRTNRVKECLAKGTFSDVTFILDDGTISAHKPLLISSCDWMAAMFGGPFVESSTREVVFPYTSKSCMRAVLEYLYTGMFTSSPDLDDMKLIILANRLCLPHLVALTEQYTVTGLMEATQMMVDIDGDVLVFLELAQFHCAYQLADWCLHHICTNYNNVCRKFPRDMKAMSPENQEYFEKHRWPPVWYLKEEDHYQRARKEREKEDYLHLKRQPKRRWLFWNSPSSPSSSAASSSSPSSSSAVV
notes: E3-ubiquitin ligase RHOBTB2/DBC2; also called RHOBTB2 fused to NanoLuc luciferase; source: HEK293, transfected, in lysate; not shown: NanoLuc luciferase, N-terminal, kept
fold difference in relative interaction strength, HSP90α against HSP90β: ~3 fold
